The assay addresses T1, transcriptional adapter zinc binding 1 (TAZ1) domain of CREB binding protein (CBP) (mouse (numbering; the same sequence in …, UniProt P45481 340-439).
T1 construct: Isotope-labelled (15N; or 2H, 13C, 15N; or 10% 13C) or unlabelled, depending on the NMR sample
Description: NMR relaxation (15N backbone and 2H methyl side chain) of the complex; 1.3 mM labelled TAZ1 with 1.8 mM unlabelled CTAD-HIF-1α, and 1.3 mM labelled CTAD-HIF-1α with 1.8 mM unlabelled TAZ1; 15 mM HEPES pH 6.8, 50 mM NaCl, 3 mM TCEP, 0.01% NaN3, 7% D2O; 303 K. Conditions: both partners purified.

This is an account of results in article PMC6851107, “Characterization of the dynamics and the conformational entropy in the binding between TAZ1 and CTAD-HIF-1α” (Scientific Reports, 2019).

T1 sequence (P45481 340-439): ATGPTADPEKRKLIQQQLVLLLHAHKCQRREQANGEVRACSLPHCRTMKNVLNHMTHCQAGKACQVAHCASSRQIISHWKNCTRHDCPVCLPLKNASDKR

B1: C-terminal transactivation domain of hypoxia inducible factor subunit 1α (CTAD-HIF-1α) (domain or fragment, UniProt Q16665 776-826, looked up)
chain: SDLACRLLGQSMDESGLPQLTSYDCEVNAPIQGSRNLLQGEELLRALDQVN
notes: Unlabelled or 2H, 13C, 15N-labelled, depending on the NMR sample
Turning to B1, the binding result was “binds”.
